{"source": "patent US20190170753A1", "about": "(ICAHN SCHOOL OF MEDICINE AT MOUNT SINAI, published 2019)", "binders": {"B1": {"name": "Neo4 mouse monoclonal antibody (antibody, V domains shown)", "VH": "QIQLKESGPAVIKPSQSLSLTCIVSGFSITSSVYCWQWIRQPPGKGLEWMGRICYDGSVDYSPSITSRGTISRDTSLNKVFFQLSSVTNEDTAMYYCSRENHIDYYDTTYPSFDVWGAGTTVTVSS", "VL": "DIVLTQSPASLIVSLGQRATISCRASKSVNEYGYTYMHWYQQKPGLPPKLLIYLASNLDSGVPARFSGSGSGTDFTLNIHPVEEEDAATYYCQHSRELPYTFGGGTKLEIKR", "notes": "Mouse hybridoma antibody, isotype IgG1, purified with Protein G; also called HCV Neo4"}}, "key": {"[1]": {"molecular_target": "T1, Mut1T110N biotin labeled HCV core peptide (hepatitis C virus, biotin labeled (position not given))", "T1 peptide": "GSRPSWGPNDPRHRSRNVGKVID", "assay": "capture EIA; Ab 125 ng/mL; bt-peptide 500 ng/mL"}, "[2]": {"molecular_target": "T2, Mut6T110S biotin labeled HCV core peptide (hepatitis C virus, biotin labeled (position not given))", "assay": "capture EIA; Ab 125 ng/mL; bt-peptide 500 ng/mL"}, "[3]": {"molecular_target": "T3, C113WT biotin labeled HCV core peptide (hepatitis C virus, also: biotin labeled, position not given here)", "T3 peptide": "RGSRPSWGPTD", "assay": "capture EIA; Ab 125 ng/mL; bt-peptide 500 ng/mL"}, "[4]": {"molecular_target": "T4, C113T109N biotin labeled HCV core peptide (hepatitis C virus, also: biotin labeled, position not given here)", "T4 construct": "also called C113T110N", "T4 peptide": "RGSRPSWGPND", "assay": "capture EIA; Ab 125 ng/mL; bt-peptide 500 ng/mL"}, "[5]": {"molecular_target": "T5, 92-133 biotin labeled HCV core peptide (hepatitis C virus, UniProt Q9WMX2 92-133, chain 1: biotin label (bt-pep). Its position and any spacer are not visible in the passages shown.)", "T5 construct": "Only the label 92-133 is printed", "T5 peptide": "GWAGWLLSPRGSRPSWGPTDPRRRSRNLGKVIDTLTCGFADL", "assay": "capture EIA; Ab 125 ng/mL; bt-peptide 500 ng/mL", "method": "(§1) Assay wells were coated with sheep anti-mouse IgG Fc specific antibody and incubated overnight. The coating solution was then removed; the wells blocked using BSA/tween in PBS and then washed with dH2O. […] Next, biotin labeled peptides (diluted to 500 ng/mL in block) were added, the plates incubated for 10 minutes while shaking at 700 rpm and then washed. Peroxidase conjugated streptavidin (diluted to 200 ng/mL in block) was then added to all assay wells, incubated for 20 minutes while shaking at 700 rpm and then washed. Finally, color was developed using OPD and signal quenched using 1N H₂SO₄. Signal was read at 492 nm."}, "[6]": {"molecular_target": "T6, WT1STHV biotin labeled HCV core peptide (hepatitis C virus, biotin labeled (position not given))", "T6 peptide": "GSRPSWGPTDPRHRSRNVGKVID", "assay": "capture EIA; Ab 125 ng/mL; bt-peptide 500 ng/mL"}, "[7]": {"molecular_target": "T1, Mut1T110N biotin labeled HCV core …", "assay": "capture EIA; Ab 0.977 ng/mL; bt-peptide 500 ng/mL", "method": "as §1"}, "[8]": {"molecular_target": "T2, Mut6T110S biotin labeled HCV core …", "assay": "capture EIA; Ab 0.977 ng/mL; bt-peptide 500 ng/mL", "method": "as §1"}, "[9]": {"molecular_target": "T3, C113WT biotin labeled HCV core peptide", "assay": "capture EIA; Ab 0.977 ng/mL; bt-peptide 500 ng/mL", "method": "as §1"}, "[10]": {"molecular_target": "T4, C113T109N biotin labeled HCV core …", "assay": "capture EIA; Ab 0.977 ng/mL; bt-peptide 500 ng/mL", "method": "as §1"}, "[11]": {"molecular_target": "T5, 92-133 biotin labeled HCV core peptide", "assay": "capture EIA; Ab 0.977 ng/mL; bt-peptide 500 ng/mL", "method": "as §1"}, "[12]": {"molecular_target": "T6, WT1STHV biotin labeled HCV core peptide", "assay": "capture EIA; Ab 0.977 ng/mL; bt-peptide 500 ng/mL", "method": "as §1"}, "[13]": {"molecular_target": "T1, Mut1T110N biotin labeled HCV core …", "assay": "capture EIA; Ab 15.6 ng/mL; bt-peptide 500 ng/mL (summary of Table 7)", "method": "as §1"}, "[14]": {"molecular_target": "T4, C113T109N biotin labeled HCV core …", "assay": "capture EIA; Ab 15.6 ng/mL; bt-peptide 500 ng/mL (summary of Table 7)", "method": "as §1"}, "[15]": {"molecular_target": "T6, WT1STHV biotin labeled HCV core peptide", "assay": "capture EIA; Ab 15.6 ng/mL; bt-peptide 500 ng/mL (summary of Table 7)", "method": "as §1"}}, "note": "Where no end group is shown, it is not given here.", "data": [{"binder": "B1", "values": [{"measurement": "signal at 492 nm", "setting": "[1]", "result": 0.204, "unit": "A492"}, {"measurement": "signal at 492 nm", "setting": "[2]", "result": 1.27, "unit": "A492"}, {"measurement": "signal at 492 nm", "setting": "[3]", "result": 0.0599, "unit": "A492"}, {"measurement": "signal at 492 nm", "setting": "[4]", "result": 0.0858, "unit": "A492"}, {"measurement": "signal at 492 nm", "setting": "[5]", "result": 1.31, "unit": "A492"}, {"measurement": "signal at 492 nm", "setting": "[6]", "result": 1.93, "unit": "A492"}, {"measurement": "signal at 492 nm", "setting": "[7]", "result": 0.0619, "unit": "A492"}, {"measurement": "signal at 492 nm", "setting": "[8]", "result": 0.0644, "unit": "A492"}, {"measurement": "signal at 492 nm", "setting": "[9]", "result": 0.0584, "unit": "A492"}, {"measurement": "signal at 492 nm", "setting": "[10]", "result": 0.0784, "unit": "A492"}, {"measurement": "signal at 492 nm", "setting": "[11]", "result": 0.0978, "unit": "A492"}, {"measurement": "signal at 492 nm", "setting": "[12]", "result": 0.22, "unit": "A492"}, {"measurement": "signal at 492 nm", "setting": "[13]", "result": 0.0771, "unit": "A492"}, {"measurement": "signal at 492 nm", "setting": "[14]", "result": 0.0736, "unit": "A492"}, {"measurement": "signal at 492 nm", "setting": "[15]", "result": 1.42, "unit": "A492"}]}]}
